Columns and labels:
[1] = molecular target: T1, SRA-Spacer (human, UniProt Q96T88 414-674); test: X-ray crystallography; 3.15 A; Spacer residues 617-674 not built; ITC: 10 mM HEPES pH 8.0, 100 mM NaCl, 18 C; EMSA: 20 mM HEPES pH 7.5, 100 mM NaCl, 8% glycerol, 1 mM DTT, on ice; pull-down: 20 mM HEPES-NaOH pH 8.0, 100 mM NaC
T1 sequence: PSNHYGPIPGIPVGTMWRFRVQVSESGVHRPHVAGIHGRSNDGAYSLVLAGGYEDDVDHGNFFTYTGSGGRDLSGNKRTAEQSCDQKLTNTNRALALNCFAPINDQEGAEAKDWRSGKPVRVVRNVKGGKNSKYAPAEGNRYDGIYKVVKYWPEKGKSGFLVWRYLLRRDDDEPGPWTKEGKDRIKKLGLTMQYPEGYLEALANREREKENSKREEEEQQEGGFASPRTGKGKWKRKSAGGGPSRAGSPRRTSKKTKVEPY

[2] = molecular target: T2, UHRF1 full-length (human, UniProt Q96T88 1-793); test: pull-down; H3 (1-17) peptide; affinity not affected; ITC: 10 mM HEPES pH 8.0, 100 mM NaCl, 18 C; EMSA: 20 mM HEPES pH 7.5, 100 mM NaCl, 8% glycerol, 1 mM DTT, on ice; pull-down: 20 mM HEPES-NaOH pH 8.0, 100 mM NaC
T2 sequence: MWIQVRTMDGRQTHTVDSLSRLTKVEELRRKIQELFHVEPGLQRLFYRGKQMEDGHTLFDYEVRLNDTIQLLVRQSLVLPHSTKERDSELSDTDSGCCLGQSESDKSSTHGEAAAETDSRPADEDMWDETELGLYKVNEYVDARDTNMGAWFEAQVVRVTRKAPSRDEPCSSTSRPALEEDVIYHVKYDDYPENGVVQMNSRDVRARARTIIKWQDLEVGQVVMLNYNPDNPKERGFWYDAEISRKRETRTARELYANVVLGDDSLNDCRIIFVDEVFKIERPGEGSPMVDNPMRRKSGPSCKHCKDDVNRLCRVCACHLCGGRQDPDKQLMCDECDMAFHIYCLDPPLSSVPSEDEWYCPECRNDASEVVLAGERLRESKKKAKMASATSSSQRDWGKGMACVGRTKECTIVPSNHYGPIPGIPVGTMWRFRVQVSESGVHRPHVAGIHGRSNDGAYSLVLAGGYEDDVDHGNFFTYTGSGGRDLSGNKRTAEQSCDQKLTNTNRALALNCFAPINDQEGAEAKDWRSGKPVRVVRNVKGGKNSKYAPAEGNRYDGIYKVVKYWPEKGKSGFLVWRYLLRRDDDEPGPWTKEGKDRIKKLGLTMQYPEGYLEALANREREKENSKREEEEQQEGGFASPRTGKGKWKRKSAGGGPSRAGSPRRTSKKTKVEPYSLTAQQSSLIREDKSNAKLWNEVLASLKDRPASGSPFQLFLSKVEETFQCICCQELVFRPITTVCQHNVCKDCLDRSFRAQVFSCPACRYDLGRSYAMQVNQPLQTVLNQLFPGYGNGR

B1: 18-bp hm-DNA (crystal) (dsDNA)
DNA 1: CATCGTCCCTGCGGGCCC
DNA 2: GGGCCCGCAGGGACGATG
modifications: 5-methyl-dC at position 6 of strand 2 (GGGCCXGCAGGGACGATG)
B1: binds [1].

B2: biotin-hm-DNA 12 bp (pull-down) (dsDNA)
DNA 1: GAGGCCGCCTGC
DNA 2: GCAGGCGGCCTC
modifications: 5-methyl-dC at position 6 of strand 1 (GAGGCXGCCTGC)
B2: binds [2].
